According to article PMC6281700, “Biochemical Characterization of Kluyveromyces lactis Adenine Deaminase and Guanine Deaminase and Their Potential Application in Lowering Purine Content in Beer” (Frontiers in Bioengineering and Biotechnology, 2018):

B1: KlacGDA (Kluyveromyces lactis NRRL Y-1140) (protein)
chain: MAPVTINMVKSEESFIDEPFHPEGVKIIVHYGNLIDTPELGQLRIRLKCAVGICSTSGVILFIEEGCDDPVIAALNYDRYLKDIDIHVIFNSVSDPAGKDSFYFPGFVDTHIHASQYPNCGIFGNSTLLDWLDTYTFPLESSLNDENIAALTYDAVISQTLKHGTTCASYFTTIDSNSSKIMADLCKSKGQRAFIGKVCMNQHSPSYYQETIEECKDASLDLIEYILKDLNSPLIKPIITPRFAITCSSALMDSLSEVAEEFDLPIQTHLNENDSEIAFVKELFKDCHSYTDVYHKHGLLNGKTVLAHCIHLEDSEIELLKKSSAGISHCPISNSSLTSGECRVKELLNYGLKVSLGSDVSGGFTVSILENARQALLVSRHRAMSVEDPERKEECKLSVAEVLYLATMGGAKVLNLSDKIGSFDVGKEFDAQLIDLSTKGSNVSIFPWQKVTNDKIQPNGKDRIKLENIVAKWLFNGDDRNVKSVWVRGKLCHQNL
notes: full length, N-terminal 6xHis (pET28c NdeI/XhoI), E. coli BL21(DE3); 106 kDa dimer; gene at chromosome D 1,643,703-1,645,193 (1491 bp, about 496 residues)
B2: KlacADA (Kluyveromyces lactis NRRL Y-1140) (protein)
chain: MAKFECTDEVTNFLTELPKCEHHLHLEGTLEPELLFQLVERNGVQLPGTFPKTVNELHVIYNNFADLQDFLNYYYIGCNVLLSEDDFFELAWSYFKRVSTQGLRHAEVFYDPQSHTSRGISLEVVTKGFERACAKAQEEFNISTKLIMCLLRHCPVEECMDTVKSAKSLIESGVIDGLGLDSSERPFPPELFVECYQLAKSYNKELQLTAHAGEEGDPSFVTNTLDLLETTRIDHGVRSIEDAELIKRLAAQKVMLTLCPLSNVKLQVVKDVSELPLQEFLDNDVPFSINSDDPAYFGGYILQNYLEVYSRFGWSKAVWAKIARQSIEGSWCDPKRKQELLSEVSEVVNKYVNLP
notes: full length, N-terminal 6xHis (pET28c NdeI/XhoI), E. coli BL21(DE3); 46 kDa monomer; gene at chromosome E 2,064,516-2,065,583, no introns (1068 bp, about 355 residues)

Tests used:
purified protein [1] = substrate: Nc1nc2nc[nH]c2c(=O)[nH]1; test: purified protein; type: biochemical, Kluyveromyces lactis; conditions: 100 mM phosphate, pH 7.0, 25°C
purified protein [2] = substrate: Nc1ncnc2nc[nH]c12; test: purified protein; type: biochemical, Kluyveromyces lactis; conditions: 100 mM potassium phosphate, pH 6.0, 30°C

Protein	Km (purified protein [1]) [µM]	kcat (purified protein [1]) [s⁻¹]	kcat/Km (purified protein [1]) [M⁻¹ s⁻¹]	Km (purified protein [2]) [µM]	kcat (purified protein [2]) [s⁻¹]	kcat/Km (purified protein [2]) [M⁻¹ s⁻¹]
B1	83 ± 2.7	7.3 ± 1.2	87000	–	–	–
B2	–	–	–	680 ± 4.6	8.1 ± 1.3	11000
